In assay [1] the target is T1, Recombinant human Dkk-1 (R&D Systems cat no. 1096-DK/CF), 10xHis tag at the C terminal (human, UniProt O94907 32-266).
T1 construct: the actual N-terminus of the purified protein is marked in bold italic after residue 30, but the mark is an image lost in the text; also called rhuDkk-1; hDkk-1
T1 sequence: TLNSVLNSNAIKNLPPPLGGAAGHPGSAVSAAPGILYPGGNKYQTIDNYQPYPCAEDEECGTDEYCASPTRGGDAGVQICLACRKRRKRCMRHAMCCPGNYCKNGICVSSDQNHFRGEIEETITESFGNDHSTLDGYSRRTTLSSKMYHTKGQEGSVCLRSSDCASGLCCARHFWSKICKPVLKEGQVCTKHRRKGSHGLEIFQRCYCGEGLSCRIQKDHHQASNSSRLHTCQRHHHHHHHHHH
Description: theoretical: koff / estimated kon 1e6 1/Ms (SPR screening 37C). As for the experimental part:
(§1) For screening assays to determine binding and dissociation rates of huMabJC18 variants to human Dkk1, either BIAcore or ProteOn XPR36 (BioRad, Inc.) systems were used. For the BIAcore assay, biotinylated-human Dkk1 was captured on SA (streptavidin) BIAcore chips according to the supplier's instructions. Biotinylated-human Dkk-1 protein was diluted into HBS-EP, and injected over the chip at a concentration of 5 μg/mL. Flow times across the individual chip channels were selected to achieve an antigen density of approximately 500-600 response units (RU). HBS-EP buffer was used as running buffer. Filtered recombinant E.coli cell lysates were injected at high temperature (37° C.) for 1 min at 30 ul/min, allowing a 1-5 min dissociation phase. Surfaces were regenerated with 8 mM NaOH+8% ethanol. A positive control Fab (clone 24) was injected twice at the start of the experiment, and again at the end of the assay to assess reproducibility.
For the ProteOn assay, biotinylated human Dkk-1 was injected for 1 min at serial fold dilutions empirically determined to yield different levels of immobilization (150-3000 RU) on five channels of a ProteOn NLC Neutravidin sensor chip. The sixth channel was left unmodified to serve as a reference surface. Recombinant Fabs in filtered E. coli lysates were injected at high temperature (37° C.) for 50 sec at 20 μl/min. Running buffer consisted of PBS+1 mg/ml BSA+0.005% Tween-20. The ProteOn is configured such that each injection flows over each of the five Dkk-1 channels as well as the reference channel, and six Fab samples can be injected simultaneously. Fab dissociation from the Dkk-1 surface was monitored for 20 min. The chip surface was regenerated with a 30-sec injection of 8% EtOH, 8 mM NaOH. Clone 24 Fab was used as control. Level of binding during association, and rate of dissociation for each clone was very consistent between different ligand channels. […]

For assay [2], the target named is T1, Recombinant human Dkk-1 (R&D Systems …). Put plainly: SPR screening 37C (BIAcore/ProteOn), Fab lysate over biotinylated human Dkk-1. Here is the method: as §1
For the ProteOn assay, biotinylated human Dkk-1 was injected for 1 min at serial fold dilutions empirically determined to yield different levels of immobilization (150-3000 RU) on five channels of a ProteOn NLC Neutravidin sensor chip. The sixth channel was left unmodified to serve as a reference surface. Recombinant Fabs in filtered E. coli lysates were injected at high temperature (37° C.) for 50 sec at 20 μl/min. Running buffer consisted of PBS+1 mg/ml BSA+0.005% Tween-20. The ProteOn is configured such that each injection flows over each of the five Dkk-1 channels as well as the reference channel, and six Fab samples can be injected simultaneously. Fab dissociation from the Dkk-1 surface was monitored for 20 min. The chip surface was regenerated with a 30-sec injection of 8% EtOH, 8 mM NaOH. Clone 24 Fab was used as control. Level of binding during association, and rate of dissociation for each clone was very consistent between different ligand channels.

The values below come from US20130071921A1 (Pfizer, published 2013).

B1: L3.4H2 (Fab, V domains shown)
VH: EVQLVESGGGLVQPGGSLRLSCAASGFTFSSYAISWVRQAPGKGLEWVASVSGWGDTYYPDSVKGRFTISRDNAKNSLYLQMNSLRAEDTAVYYCATSLQNYAFDYWGQGTTVTVSS
VL: EIVLTQSPATLSLSPGERATLSCRASESVDDFGISFINWYQQKPGQAPRLLIYAGSKQGSGIPARFSGSGSGTDFTLTISSLEPEDFAVYYCQQLKEVPPTFGGGTKVEIK
notes: tested as Fab (E. coli lysate, screening mode); human kappa CL and IgG2 CH1 not included here; printed changes identical to L3.4E7
By Kd is commonly meant the constant that tells how readily two partners part at equilibrium. The koff is the rate constant with which the complex falls apart. Take B1: the Kd in assay [1] is 0.048 nM. In addition, the koff in assay [2] was 4.8e-05 s⁻¹.

B2: SL3.3F4 (Fab, V domains shown)
VH: EVQLVESGGGLVQPGGSLRLSCAASGFTFSSYAISWVRQAPGKGLEWVASVSGGGRTYYPDSVKGRFTISRDNAKNSLYLQMNSLRAEDTAVYYCATSLENYAFDYWGQGTTVTVSS
VL: EIVLTQSPATLSLSPGERATLSCRASESVDDFGISFMNWYQQKPGQAPRLLIYAASKQGSGIPARFSGSGSGTDFTLTISSLEPEDFAVYYCQQSSEVPPTFGGGTKVEIK
notes: tested as Fab (E. coli lysate, screening mode); human kappa CL and IgG2 CH1 not included here
On to B2, for which the Kd in assay [1] is 11.8 nM. For the same molecule, the koff in assay [2] was found to be 0.0118 s⁻¹.

B3: SL3.1D2 (Fab, V domains shown)
VH: EVQLVESGGGLVQPGGSLRLSCAASGFTFSSYAISWVRQAPGKGLEWVASVSGGGRTYYPDSVKGRFTISRDNAKNSLYLQMNSLRAEDTAVYYCATSLENYAFDYWGQGTTVTVSS
VL: EIVLTQSPATLSLSPGERATLSCRASESVDDFGISFMNWYQQKPGQAPRLLIYAASKQGSGIPARFSGSGSGTDFTLTISSLEPEDFAVYYCQQSKEVPPLFGGGTKVEIK
notes: as for B2
As to B3, in assay [1], the Kd is 4.9 nM. Also, in assay [2], the koff was determined as 0.0049 s⁻¹.

B4: SL3.1F12 (Fab, V domains shown)
VH: EVQLVESGGGLVQPGGSLRLSCAASGFTFSSYAISWVRQAPGKGLEWVASVSGGGRTYYPDSVKGRFTISRDNAKNSLYLQMNSLRAEDTAVYYCATSLENYAFDYWGQGTTVTVSS
VL: EIVLTQSPATLSLSPGERATLSCRASESVDDFGISFMNWYQQKPGQAPRLLIYAASKQGSGIPARFSGSGSGTDFTLTISSLEPEDFAVYYCQQSKEVPPYFGGGTKVEIK
notes: as for B2
Take B4: in assay [1], the Kd was 5.52 nM. Also, the koff in assay [2] was 0.00552 s⁻¹.

B5: SL3.3C10 (Fab, V domains shown)
VH: EVQLVESGGGLVQPGGSLRLSCAASGFTFSSYAISWVRQAPGKGLEWVASVSGGGRTYYPDSVKGRFTISRDNAKNSLYLQMNSLRAEDTAVYYCATSLENYAFDYWGQGTTVTVSS
VL: EIVLTQSPATLSLSPGERATLSCRASESVDDFGISFMNWYQQKPGQAPRLLIYAASKQGSGIPARFSGSGSGTDFTLTISSLEPEDFAVYYCQQSKEVWPTFGGGTKVEIK
notes: as for B2
As to B5, in assay [1], the Kd is 12.1 nM. For the same molecule, the koff in assay [2] was found to be 0.0121 s⁻¹.

B6: SL3.1G9 (Fab, V domains shown)
VH: EVQLVESGGGLVQPGGSLRLSCAASGFTFSSYAISWVRQAPGKGLEWVASVSGGGRTYYPDSVKGRFTISRDNAKNSLYLQMNSLRAEDTAVYYCATSLENYAFDYWGQGTTVTVSS
VL: EIVLTQSPATLSLSPGERATLSCRASESVDDFGISFMNWYQQKPGQAPRLLIYAASKQGSGIPARFSGSGSGTDFTLTISSLEPEDFAVYYCQQLKEVPPTFGGGTKVEIK
notes: as for B2
As for B6, the Kd in assay [1] is 0.947 nM. The koff in assay [2] turned out to be 0.000947 s⁻¹.

B7: SL3.4C7 (Fab, V domains shown)
VH: EVQLVESGGGLVQPGGSLRLSCAASGFTFSSYAISWVRQAPGKGLEWVASVSGGGRTYYPDSVKGRFTISRDNAKNSLYLQMNSLRAEDTAVYYCATSLENYAFDYWGQGTTVTVSS
VL: EIVLTQSPATLSLSPGERATLSCRASESVDDFGISFMNWYQQKPGQAPRLLIYAASKQGSGIPARFSGSGSGTDFTLTISSLEPEDFAVYYCQHSKEVPPTFGGGTKVEIK
notes: as for B2
With B7, the Kd in assay [1] is 7.3 nM. In assay [2], the koff was determined as 0.0073 s⁻¹.

B8: SL3.3H8 (Fab, V domains shown)
VH: EVQLVESGGGLVQPGGSLRLSCAASGFTFSSYAISWVRQAPGKGLEWVASVSGGGRTYYPDSVKGRFTISRDNAKNSLYLQMNSLRAEDTAVYYCATSLENYAFDYWGQGTTVTVSS
VL: EIVLTQSPATLSLSPGERATLSCRASESVDDFGISFMNWYQQKPGQAPRLLIYAASKQGSGIPARFSGSGSGTDFTLTISSLEPEDFAVYYCQQSKEVPGTFGGGTKVEIK
notes: as for B2
With B8, the Kd in assay [1] is 22.9 nM. Moreover, the koff in assay [2] stood at 0.0229 s⁻¹.

B9: SL3.3A10 (Fab, V domains shown)
VH: EVQLVESGGGLVQPGGSLRLSCAASGFTFSSYAISWVRQAPGKGLEWVASVSGGGRTYYPDSVKGRFTISRDNAKNSLYLQMNSLRAEDTAVYYCATSLENYAFDYWGQGTTVTVSS
VL: EIVLTQSPATLSLSPGERATLSCRASESVDDFGISFMNWYQQKPGQAPRLLIYAASKQGSGIPARFSGSGSGTDFTLTISSLEPEDFAVYYCQQSKELPPTFGGGTKVEIK
notes: as for B2
Take B9: the Kd in assay [1] is 5.72 nM. In addition, the koff in assay [2] amounted to 0.00572 s⁻¹.

B10: SL3.3B11 (Fab, V domains shown)
VH: EVQLVESGGGLVQPGGSLRLSCAASGFTFSSYAISWVRQAPGKGLEWVASVSGGGRTYYPDSVKGRFTISRDNAKNSLYLQMNSLRAEDTAVYYCATSLENYAFDYWGQGTTVTVSS
VL: EIVLTQSPATLSLSPGERATLSCRASESVDDFGISFMNWYQQKPGQAPRLLIYAASKQGSGIPARFSGSGSGTDFTLTISSLEPEDFAVYYCQQAKEVPPTFGGGTKVEIK
notes: as for B2
Take B10: the Kd in assay [1] was 12 nM. Moreover, the off-rate (koff) in assay [2] was 0.012 s⁻¹.

B11: L3.4H5 (Fab, V domains shown)
VH: EVQLVESGGGLVQPGGSLRLSCAASGFTFSSYAISWVRQAPGKGLEWVASVSGWGDTYYPDSVKGRFTISRDNAKNSLYLQMNSLRAEDTAVYYCASSLDNYAFDYWGQGTTVTVSS
VL: EIVLTQSPATLSLSPGERATLSCRASESVDDFGISFINWYQQKPGQAPRLLIYAGSKQGSGIPARFSGSGSGTDFTLTISSLEPEDFAVYYCQQLKEVPPTFGGGTKVEIK
notes: as for B2
In the case of B11, in assay [1], the Kd was 0.808 nM. The koff in assay [2] is 0.000808 s⁻¹.

B12: SL3.1G2 (Fab, V domains shown)
VH: EVQLVESGGGLVQPGGSLRLSCAASGFTFSSYAISWVRQAPGKGLEWVASVSGGGRTYYPDSVKGRFTISRDNAKNSLYLQMNSLRAEDTAVYYCATSLENYAFDYWGQGTTVTVSS
VL: EIVLTQSPATLSLSPGERATLSCRASESVDDFGISFMNWYQQKPGQAPRLLIYAASKQGSGIPARFSGSGSGTDFTLTISSLEPEDFAVYYCQQSIEVPPTFGGGTKVEIK
notes: as for B2
Consider B12, for which the Kd in assay [1] is 8.72 nM. The koff in assay [2] stood at 0.00872 s⁻¹.

B13: SL3.1F11 (Fab, V domains shown)
VH: EVQLVESGGGLVQPGGSLRLSCAASGFTFSSYAISWVRQAPGKGLEWVASVSGGGRTYYPDSVKGRFTISRDNAKNSLYLQMNSLRAEDTAVYYCATSLENYAFDYWGQGTTVTVSS
VL: EIVLTQSPATLSLSPGERATLSCRASESVDDFGISFMNWYQQKPGQAPRLLIYAASKQGSGIPARFSGSGSGTDFTLTISSLEPEDFAVYYCQQSWEVPPTFGGGTKVEIK
notes: as for B2
Take B13: the Kd in assay [1] was 5.4 nM. The koff in assay [2] amounted to 0.0054 s⁻¹.

B14: SL3.4D1 (Fab, V domains shown)
VH: EVQLVESGGGLVQPGGSLRLSCAASGFTFSSYAISWVRQAPGKGLEWVASVSGGGRTYYPDSVKGRFTISRDNAKNSLYLQMNSLRAEDTAVYYCATSLENYAFDYWGQGTTVTVSS
VL: EIVLTQSPATLSLSPGERATLSCRASESVDDFGISFMNWYQQKPGQAPRLLIYAASKQGSGIPARFSGSGSGTDFTLTISSLEPEDFAVYYCQQSMEVPPTFGGGTKVEIK
notes: as for B2
Regarding B14, the Kd in assay [1] was 7.5 nM. Also, the koff in assay [2] is 0.0075 s⁻¹.

B15: SL3.4A10 (Fab, V domains shown)
VH: EVQLVESGGGLVQPGGSLRLSCAASGFTFSSYAISWVRQAPGKGLEWVASVSGGGRTYYPDSVKGRFTISRDNAKNSLYLQMNSLRAEDTAVYYCATSLENYAFDYWGQGTTVTVSS
VL: EIVLTQSPATLSLSPGERATLSCRASESVDDFGISFMNWYQQKPGQAPRLLIYAASKQGSGIPARFSGSGSGTDFTLTISSLEPEDFAVYYCQQSLEVPPTFGGGTKVEIK
notes: as for B2
In the case of B15, the Kd in assay [1] is 7.3 nM. Also, the koff in assay [2] came to 0.0073 s⁻¹.
